The MegaScale stability set (Tsuboyama et al. 2023)

B1: EEHEE_rd3_0130 (parent)
chain: TKIIVNGKTFTAPTEEEAQKIAEKLAKKAGLTVHKKNGTFELK

Variants of: B1
Assay: folding stability dG (cDNA display proteolysis); higher = more stable
Conditions: PBS, room temperature

Variant	folding stability dG [kcal/mol]
TKIIVNGKTFTTPTEEEAQKIAEKLAKKAGLTVHKKNGTFELK [A12T]	0.083
TKIIVNGKTFTRPTEEEAQKIAEKLAKKAGLTVHKKNGTFELK [A12R]	0.461
TKIIVNGKTFTNPTEEEAQKIAEKLAKKAGLTVHKKNGTFELK [A12N]	-0.407
TKIIVNGKTFTWPTEEEAQKIAEKLAKKAGLTVHKKNGTFELK [A12W]	0.836
TKIIVNGKTFTAPTEEEVQKIAEKLAKKAGLTVHKKNGTFELK [A18V]	-0.585
TKIIVNGKTFTAPTEEETQKIAEKLAKKAGLTVHKKNGTFELK [A18T]	-0.68
TKIIVNGKTFTAPTEEEAQKIAEKLAKKAGLTVHQKNGTFELK [K35Q]	0.41
TKIIVNGKTFTAPTEEEAQKIAEKLAKKAGLTVHWKNGTFELK [K35W]	1.34
TKIIVNGKTFTAPTEEEAQKIAEKLAKKAGLTVHNKNGTFELK [K35N]	0.482
TKIIVNGKTFTAPTEEEAQKIAEKLAKKAGLTVHVKNGTFELK [K35V]	0.732
TKIIVNGKTFTAPTEEEAQKIAEKLAKKAGLTVHKKNGTYELK [F40Y]	0.608
TKIIVNGKTFTAPTEEEAQKIAEKLAKKAGLTVHKKNGTSELK [F40S]	0.04
TKIIVNGKTFTAPTEEEAQKIAEKLAKKAGLTVHKKNGTFELR [K43R]	1.07
TKIIVNGKTFTAPTEEEAQKIAEKLAKKAGLTVHKKNGTFELA [K43A]	0.626
TKIIVNGKTFTAPTEEEAQKIAEKLAKKAGLTVHKKNGTFELF [K43F]	1.13
TKIIVNGKTFTAPTEEEAQKIAEKLAKKTGLTVHKKNGTFELK [A29T]	1.2
TKIIVNGKTFTAPTEEEAQKIAEKLAKKQGLTVHKKNGTFELK [A29Q]	0.726
TKIIVNGKTFTAPTEEEAQKIAEKLAKKVGLTVHKKNGTFELK [A29V]	0.495
TKIIVNGKTFTAPTEEEAQKIAEKLAKKPGLTVHKKNGTFELK [A29P]	-0.744
TKIIVNGKTFTAPTEEFAQKIAEKLAKKAGLTVHKKNGTFELK [E17F]	0.623

Variant	folding stability dG [kcal/mol]
TKIIVNGKTFTAPTEESAQKIAEKLAKKAGLTVHKKNGTFELK [E17S]	0.635
TKIIVNHKTFTAPTEEEAQKIAEKLAKKAGLTVHKKNGTFELK [G7H]	0.106
TKIIVNLKTFTAPTEEEAQKIAEKLAKKAGLTVHKKNGTFELK [G7L]	-0.186
TKIIVNGKTFTAPTFEEAQKIAEKLAKKAGLTVHKKNGTFELK [E15F]	1
TKIIVNGKTFTAPTAEEAQKIAEKLAKKAGLTVHKKNGTFELK [E15A]	0.725
TKIIVNGKTFTAPTTEEAQKIAEKLAKKAGLTVHKKNGTFELK [E15T]	0.439
TKIIVNGKTFTAPTHEEAQKIAEKLAKKAGLTVHKKNGTFELK [E15H]	0.545
TKIIVNGKTFTAPTDEEAQKIAEKLAKKAGLTVHKKNGTFELK [E15D]	0.325
TKIIVNGWTFTAPTEEEAQKIAEKLAKKAGLTVHKKNGTFELK [K8W]	1.53
TKIIVNGYTFTAPTEEEAQKIAEKLAKKAGLTVHKKNGTFELK [K8Y]	1.33
TKIIVNGKTFTAPTEEEAQKIAEKLAKKAGLTVHKKNGTFEAK [L42A]	0.214
TKIIVNGKTFTAPTEEEAQKIAEKLAKKAGLTVHKKNGTFETK [L42T]	0.203
TKIIVNGKTFTAPTEEEAQKIAEKLAKKAGLTVHKKNGTFEDK [L42D]	0.274
TKIIVNGKTFTAPTEEEAQKIAEKLAKKAGLTVHKKNGTFEYK [L42Y]	0.019
TKIIVNGKTFTAPTEEEAQKIAEKLAKKAGLTVHKKNGTFENK [L42N]	0.089
TKIIVNGKTFTAPTEEEAQKIAEILAKKAGLTVHKKNGTFELK [K24I]	0.99
TKIIVNGKTFTAPTEEEAQKIALKLAKKAGLTVHKKNGTFELK [E23L]	0.894
TKIIVNGKTFTAPTEEEAQKIAYKLAKKAGLTVHKKNGTFELK [E23Y]	1.13
TKIIVNGKTFTAPTEEEAQKIAEKWAKKAGLTVHKKNGTFELK [L25W]	1.48
TKIIVNGKTFTAPTEHEAQKIAEKLAKKAGLTVHKKNGTFELK [E16H]	0.749

Variant	folding stability dG [kcal/mol]
TKIIVNGKTFTAPTEGEAQKIAEKLAKKAGLTVHKKNGTFELK [E16G]	0.554
TKIIVNGKTFTAPTEEEAQKAAEKLAKKAGLTVHKKNGTFELK [I21A]	-0.095
TKIIVNGKTFTAPTEEEAQKPAEKLAKKAGLTVHKKNGTFELK [I21P]	-0.76
TKIIVNGKTFTAPTEEEAQKRAEKLAKKAGLTVHKKNGTFELK [I21R]	0.152
TKIIVNGKTFTAPTEEEAQKIAEKLWKKAGLTVHKKNGTFELK [A26W]	-0.138
TKIIVNGKTFTAPTEEEAQKIAEKLGKKAGLTVHKKNGTFELK [A26G]	0.163
TKIIVNGKTFTAPTEEEAQKIAEKLCKKAGLTVHKKNGTFELK [A26C]	0.45
TKIIVNGKTFTAPTEEEAQKIYEKLAKKAGLTVHKKNGTFELK [A22Y]	-0.256
TKIIVNGKTFTAPTEEEAQKITEKLAKKAGLTVHKKNGTFELK [A22T]	-0.186
TKIIVNGKTFTAPPEEEAQKIAEKLAKKAGLTVHKKNGTFELK [T14P]	-0.49
TKIIVNGKTFTAPTEEEAQKIAEKLAKKAGDTVHKKNGTFELK [L31D]	-0.475
TKIIVNGKTFTAPTEEEAQKIAEKLAKKAGRTVHKKNGTFELK [L31R]	-0.423
TKIIVNGKTFTAPTEEEAQKIAEKLAKKAGPTVHKKNGTFELK [L31P]	-0.624
TKIIVNGKTFTAPTEEEAQKIAEKLAKKAGSTVHKKNGTFELK [L31S]	-0.591
TKIIVNGKTFTAPTEEEAQKIAEKLAKKAGTTVHKKNGTFELK [L31T]	-0.366
TKIIVNGKTMTAPTEEEAQKIAEKLAKKAGLTVHKKNGTFELK [F10M]	0.05
TKIIVNGKTFTAPTEEEAQKIAEKLAKNAGLTVHKKNGTFELK [K28N]	0.582
TWIIVNGKTFTAPTEEEAQKIAEKLAKKAGLTVHKKNGTFELK [K2W]	0.519
TGIIVNGKTFTAPTEEEAQKIAEKLAKKAGLTVHKKNGTFELK [K2G]	-0.359
